The source of these data is paper doi:10.1101/2020.01.27.920827 (bioRxiv, 2020).

Series [1] deals with the molecule itself. In words: SDS-resistant oligomer bands on SDS-PAGE after liposome co-sedimentation.
The series “FRET or BRET” deals with the molecule itself. In words: FRET or BRET. (In general: Bioluminescence resonance energy transfer reports proximity on the nanometre scale.)

B1: epsin1 ENTH domain, wild type (Rat Epsin1 WT ENTH 1-164) (domain or fragment)
chain: MSTSSLRRQMKNIVHNYSEAEIKVREATSNDPWGPSSSLMSEIADLTYNVVAFSEIMSMIWKRLNDHGKNWRHVYKAMTLMEYLIKTGSERVSQQCKENMYAVQTLKDFQYVDRDGKDQGVNVREKAKQLVALLRDEDRLREERAHALKTKEKLAQTATASSAA
Regarding B1, in series [1], the binding result was “binds”.

B2: ENTH WT (C96A A155C) domain, labelled with Atto488 maleimide or Atto532 maleimide (domain or fragment)
chain: MSTSSLRRQMKNIVHNYSEAEIKVREATSNDPWGPSSSLMSEIADLTYNVVAFSEIMSMIWKRLNDHGKNWRHVYKAMTLMEYLIKTGSERVSQQAKENMYAVQTLKDFQYVDRDGKDQGVNVREKAKQLVALLRDEDRLREERAHALKTKEKLCQTATASSAA
modifications: Atto488 maleimide (donor population) or Atto532 maleimide (acceptor population), by cysteine modification
On to B2, for which, in the series “FRET or BRET”, the binding result was “binds”.
